Test results from publication PMC12152508, “Altering 15‐Lipoxygenases to 18‐Lipoxygenases and Their Application to the Production of 5,18‐Dihydroxyeicosapentaenoic Acids” (Biotechnology and Bioengineering, 2025).
Substitutions are numbered along the chain they refer to. Names may count otherwise.

B1: 15S-LOX from Archangium violaceum (Archangium violaceum Cb vi76; L429W/L430M/L575M) (protein)
chain: MRSIPSLPQNDSPAQQELRLATLTQERQVYAYNFDSRLSPLGIAAQVPRQDNFSFVWLDGVATTGLQLLGNVLAIGAKLFDNGEAIQNDAGLSELELRRVEGTYRELTDGFSRLSDRTSRLHQAPRSPAVTLIADVIERPRTLLKAAGQKLEETAGVAIVSELATQAALDAPAIGQDILDLIDTLLKKLLSEAGDLFLKYLGLYGKAASLDNYTAQFSLLQPPSVASNYETDLIFARMRLAGPNPALLQGIAALPEKFPVTDAQYQSVMGSQDTLARAGQEGRLYLLDYAVFQGIPTGQTSGGQKYIEAPLALFAVPAANQADRKLRAVAIQCSQTPGRSNPIFTPADGTSWSLARLHVQVADGNYHELIAHLGLTHLILEEFTLSTHRQLAPQHPLYLLLTPHFQGTLAINNAAETSLIAPGGPVDQWMAGEIKASTQVSIQAVANQSINQSFLPRALAARGVDDASKLPDYPYRDDALLLWNDIRAWVSDYLAIYYNDDAAVRSDYELQAWVTELASPDAGKLKDVTEGGGGIQTFEYLVDLTTYIIFTASVQHAAVNFPQRTVMSYTPALPMAAYAPAPTSVEELPPSTELTHLPPLQMAFLQQAVTFGLGNVYFTRLGGYDTYLREPWFADARVWPALEVFQKRLRATEREIGQRNLSRIPYETLLPTAIPQSINI
notes: expressed from pET-28a(+) in E. coli C2566, His-Trap purified
B2: 15S-LOX from Archangium violaceum (Archangium violaceum Cb vi76; L429W/L430M) (protein)
chain: B1 chain with M575L
notes: as for B1
B3: 15S-LOX from Archangium violaceum (Archangium violaceum Cb vi76) (protein)
chain: B1 chain with W429L, M430L, M575L
notes: as for B1
B4: 15S-LOX from Archangium violaceum (Archangium violaceum Cb vi76; L429W) (protein)
chain: B1 chain with M430L, M575L
notes: as for B1
B5: 15R-LOX from Sorangium cellulosum (Sorangium cellulosum) (protein)
chain: MSNPSLPQNDSPAEQQQRKSELARAQQTYVYDHDTRLSPLGVAQSVPNGQGFAPILVGSAALVILDLVGNVVAKASKLVGSDGSLRSPKGAPLDDATSARIQGVLHDLKQRHRELTLVLTPLHGEPERAPAPPPRAPAVALVEGVAQKFVTTAENRAMESVLGATNLSTKNVGDIIKSLLDTLLSAAGKLLLDLVGMYGQATSVYDYVSEFQTFRLPEIASVYQDDAIFAWMRVAGPNPLVLKRVASPGASFPVTDAQYRSVMGEGDSLASAGKEGRLYLADYKALSQLVPGTAPDQQKYVEAPLALFAVPAAGAPSRLLRPVAIQCAQAPGAASPIFTPSDGVAWEVAKLHVQVADGNFHELISHLGQTHLVLEAFAMATPRQLAPEHPVNVLLTPHFQGTLAINNAAEADLIAPGGPVDNLLAGTIASSTQLAVDAVLSYSVNQQFLPVALAQRGVDDPSTLPSYPYRDDATLLWGAIHTWVSRYLAVYYTSDADVLGDYELQHWIAELSSPSGCGLKDIGEDGAIRTVAYLADLLTHVIFTASAQHAAVNFPQSSLMSFTPALPLAAYAPAPSITAGLPPSEIFQHLPPLQQALLQINVMMLLGGVYYSRLGDYDRNIPGAYFTDARVREPLEAFQRELMEIEATIGKRNLQRFPYVVLLPSQIPQSINI
B6: 15R-LOX from Sorangium cellulosum (Sorangium cellulosum; L423W) (protein)
chain: B5 chain with L423W
notes: as for B1
B7: 15R-LOX from Sorangium cellulosum (Sorangium cellulosum; L423W/L424M/L568M) (protein)
chain: B5 chain with L423W, L424M, L568M
notes: as for B1
B8: 15R-LOX from Sorangium cellulosum (Sorangium cellulosum; L423W/L424M) (protein)
chain: B5 chain with L423W, L424M
notes: as for B1

How the values were obtained:
purified protein [1] = substrate: CC/C=C\C/C=C\C/C=C\C/C=C\C/C=C\CCCC(=O)O; experiment: purified protein; assay type: biochemical, Archangium violaceum; conditions: 50 mM HEPES pH 8.5, 20°C
purified protein [2] = substrate: CC/C=C\C/C=C\C/C=C\C/C=C\C/C=C\CCCC(=O)O; experiment: purified protein; assay type: biochemical, Sorangium cellulosum; conditions: 50 mM HEPES pH 8.0, 20°C

Protein	Km (purified protein [1]; products 15S- and 18S-HpEPEs) [µM]	kcat (purified protein [1]; products 15S- and 18S-HpEPEs) [s⁻¹]	kcat/Km (purified protein [1]; products 15S- and 18S-HpEPEs) [M⁻¹ s⁻¹]	Km (purified protein [2]; products 15R- and 18R-HpEPEs) [µM]	kcat (purified protein [2]; products 15R- and 18R-HpEPEs) [s⁻¹]	kcat/Km (purified protein [2]; products 15R- and 18R-HpEPEs) [M⁻¹ s⁻¹]	also measured
B1	221.3	118	530000				
B2	57.2	48.7	850000				
B3							Km (purified protein [1]; product 15S-HpEPE): 40.7 µM; kcat (purified protein [1]; product 15S-HpEPE): 61.4 s⁻¹; kcat/Km (purified protein [1]; product 15S-HpEPE): 1.51e+06 M⁻¹ s⁻¹
B4	35.6	51.8	1.45e+06				
B5							Km (purified protein [2]; product 15R-HpEPE): 41.9 µM; kcat (purified protein [2]; product 15R-HpEPE): 68 s⁻¹; kcat/Km (purified protein [2]; product 15R-HpEPE): 1.62e+06 M⁻¹ s⁻¹
B6				69.8	105	1.5e+06	
B7				253.7	90.8	360000	
B8				43.3	22.7	520000	
